Laboratory results: the nanobody polyreactivity screen of Harvey et al. (2022)

Test: yeast display, Sf9 membrane polyspecificity reagent, FACS + sequencing; frameworks hold sequencing errors
Outline: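 In a synthetic yeast display library (Saccharomyces cerevisiae BJ5465), nanobody expression was induced with galactose for 36–48 hours. FACS gates were set low and high (top ~1%) using anti-HA fluorescence for expression and streptavidin fluorescence for binding of the Sf9 membrane reagent. Each polyreactivity label is drawn from the gate of origin.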

Row | Sequence | polyreactivity (PSR sort gate)
1 | QVQLVESGGGLVQAGGSLRLSCAASGLTFQLYTMGWYRQAPGKERELVAAISRSGTRTYYADSVKGRFTISRDNAQNTVYLQMNSLKPEDTAVYYCAARTDGYRNNYWGQATQVTVSS | high polyreactivity
2 | QVQLVESGGGLVQAGGSLRLSCAASGLTFQNNAMGWYRQAPGKERELVAVITRIGGSTYYADSVKGRFTISRDNAKNTVYLQMNSLKPEDTAVYYCAAGYRTRRRLHDYWGQGTQVTVSS | high polyreactivity
3 | QVQLVESGGGLVQAGGSLRLSCAASGLTFQTNAMGWYRQAPGKERELVAAISRRGSSTYYADSVKGRFTISRDNAKNTVYLQMNSLKPEDTAVYYCNAVRFLFIYPRYDYWGQGTQVTVSS | high polyreactivity
4 | QVQLVESGGGLVQAGGSLRLSCAASGLTFQYNAMGWYRQAPGKERELVAVISWSGGSTYYADSVKGRFTISRDNAMNTVYLQMNSLIPEDTAVYYCNAVGFVWYFDVYSYFTEFKYDYWGQGTQVTVSS | low polyreactivity
5 | QVQLVESGGGLVQAGGSLRLSCAASGLTFRDNAMGRYRQAPGKERELVATINSGGSTDYADSVKGRFTISRDNAKNTVYLQMNSLKPEDTAVYYCAVSREYYDRGWYSIFYWYVYWGQGTQVTVSS | low polyreactivity
6 | QVQLVESGGGLVQAGGSLRLSCAASGLTFRIYAMGWYRQAPGKERQLVAAISYRGGSTYYADSVKGRFTISRDNAKNTVYLQMNSLKPEDTAVYYCAAGFVLNGIRYDYWGQGTQVTVSS | high polyreactivity
7 | QVQLVESGGGLVQAGGSLRLSCAASGLTFRSYTMGWYRQAPGKERELVAAISSGGSTYYADSVKGRFTISRDNAKNTVYLQMNSLKPEDTAVYYCAAPRGHGKYYSWGQGTQVTVSS | high polyreactivity
8 | QVQLVESGGGLVQAGGSLRLSCAASGLTFRVYAMVWYRQAPGKERELVAAISKRGGSTYYADSVKGRFTISRDNAKKTVYLQMNSLKPEENAVYSCAADSDNSVRLAGSGGNYCGQGTQVTVSS | high polyreactivity
9 | QVQLVESGGGLVQAGGSLRLSCAASGLTFRYYAMGWYRQAPGKERELVAAITRRGSTYYADSVKGRFTISRDNAKNSVYLQMNSLKPEDTAVYYGATVTGFHSSPLRDLDYWGQGTQVTVSS | high polyreactivity
10 | QVQLVESGGGLVQAGGSLRLSCAASGLTFRYYTMGWYRQAPGKERELVASINIRGGSTYYADSVKGRFTISRDNAKNTVYLQMNSLKAEDTSVYYCNNRYGFSFGYWGQGTQVTVSS | high polyreactivity
11 | QVQLVESGGGLVQAGGSLRLSCAASGLTFSAYAMGWYRQAPGKERELVAAITTGGGRTYYADSVKGRFTISRDNAKNTVYLQMNSLKPEDTAVYYCNTLRAYWTYHFYGAVRDGYDYWGQGTKVTVSS | low polyreactivity
12 | QVQLVESGGGLVQAGGSLRLSCAASGLTFSDYAMGWYRQAPGKERAFVAAITRNGGSTRYADSVKGRFTISRDNAKITVYLQMHSLKPEDTAVYYCATDVGFGRKQRPHRPGYGYWGQGTQVTVSS | low polyreactivity
13 | QVQLVESGGGLVQAGGSLRLSCAASGLTFSGNVMGWYRQAPGKERELVAAIDRSGGSTYYADSVKGRFTISRDNAKNTVYLQMNSLKPEDTAVYYCAVSSYPNHSRSWDDYWGQGTQVTVSS | low polyreactivity
14 | QVQLVESGGGLVQAGGSLRLSCAASGLTFSKYVMGWYRQAPGKERELVAAITWSGGRTYYADSVKGRFTISRDNAKNTVYLLMNSLKPEDTAVYYCNRKLKGLGYEYDYWGQGTQVTVSS | high polyreactivity
15 | QVQLVESGGGLVQAGGSLRLSCAASGLTFSKYVMGWYRQAPGKERELVAAITWSGGRTYYADSVKGRFTISRDNAKNTVYLQMNSLKPEDTAVYYCNRKLKGLGYEYDYWGQGTQVTVSS | high polyreactivity
16 | QVQLVESGGGLVQAGGSLRLSCAASGLTFSLNAMGGYRQAPGKERELVAAIRGSGGSTYYADSVKGRFTISRDNAKNTVYLQMNSLKPEDTAVYYCNADQLVWQRYGVLYEYDYWGQGTQVTVSS | high polyreactivity

Row | Sequence | polyreactivity (PSR sort gate)
17 | QVQLVESGGGLVQAGGSLRLSCAASGLTFSQNAMGWYRQAPGKERELVAAITRSGSTTHYADSVKGRFTISRDNAKNTVYLQMNSLKPEDTAVYYCAAVAFLTRYYYWGQGTQVTVSS | high polyreactivity
18 | QVQLVESGGGLVQAGGSLRLSCAASGLTFSRYAMGWYRQAPGKERELVAAITWSGSSTYYADSVKGRFTISRDNAKNTVYLQMNSLKPEDTAVYYCAARYGYSRGPYYRSDYWGQGTQVTVSS | high polyreactivity
19 | QVQLVESGGGLVQAGGSLRLSCAASGLTFSVYAMGWYRQAPGKERELVAAISYSGDSTYADSVKGRFTISRDNAKNTVYLQMNSLKPEDTAVYYCNARWVRQGYRRWYDYWGQGTQVTVSS | low polyreactivity
20 | QVQLVESGGGLVQAGGSLRLSCAASGLTFSVYAMGWYRQAPGKERELVAAITRNGGSTYYADSVKGRFTISRDNAKNTVYLQMNSLKTEDTAVYYCAADASSKLYDYWGQGTQVSVSS | low polyreactivity
21 | QVQLVESGGGLVQAGGSLRLSCAASGLTFSWNAMGWYRQAPGKERELVAAISSRGGSTYYADSVKWRFKISRDNAKNTVYLQMNSLKPEDTAVYYCNAHGRRFLGDYGYWGQGTQVTVSS | low polyreactivity
22 | QVQLVESGGGLVQAGGSLRLSCAASGLTFTGYFMGWYRQAPGKERELVAAISYSGSSTYYADSVKGRFTISRDNAKNTVYLQMNSLKQEDTAVYYCAATSHAYYPRYYYWGQGTQVTVSS | high polyreactivity
23 | QVQLVESGGGLVQAGGSLRLSCAASGLTFTKYAMGWYRKAPGKEREFVASISWNGGDTYADSVKGRFTISRDNAKNTVYLQMNSLKPEDTAVYYCAARRTQQKVYYWGQGTQVTVSS | high polyreactivity
24 | QVQLVESGGGLVQAGGSLRLSCAASGLTFTSYAMGWSRPAPGKERELVAAIDWSGGRTYYADSVKGRFTISRDNAKNTVYLQMNSLKPEDTAVYYCAAYSRNRALRFNYWGQGTQVTVSS | high polyreactivity
25 | QVQLVESGGGLVQAGGSLRLSCAASGLTFTSYAMGWYRQAPGKERELVAAIDWSGGRTYYADSVKGRFTISRDNAKNTVYLQMNSLKPEDTAVYYCYKYRYQWPYRRFDYWGQGTQVTVSS | high polyreactivity
26 | QVQLVESGGGLVQAGGSLRLSCAASGLTFTYYAMGWYRQAPGKERELVAAISSSGSDTYYADSVKGRFTISRDNAKNTVYLQMNSLKPEDTAVYYCAAVLTALSPDFEYEYWGQGTQVTVSS | low polyreactivity
27 | QVQLVESGGGLVQAGGSLRLSCAASGLTFVANAMGWYRQAPGKERELVAAIDYGGGHTYYADSVKGRFTNSRDNAKNTVYLQMNSLKPEDTAVYYCAVGLPHGGRRLYGSWYRFDYWGQGTQVTVSS | low polyreactivity
28 | QVQLVESGGGLVQAGGSLRLSCAASGLTFVDYAMGWYRQAPGKERELVAAITSSGGSITYYADSVKGRFTISRDNAKNTVYLQMNSLKPEDTAVYYCNADYGIYTDSFRGPDYESWGQGTQVTVSS | low polyreactivity
29 | QVQLVESGGGLVQAGGSLRLSCAASGLTFVFYAMGWYRQAPGKERELVAAISSSGGSTNYADSVKGRFTISRDNAKNTVYLQMNSLKPEDTAVYYCNAALLGKQYYSNPNYDYWGQGTQVTVSS | high polyreactivity
30 | QVQLVESGGGLVQAGGSLRLSCAASGLTFVFYAMGWYRQSPGNERELVAAISWSTGRTYYADSVKGRFTISRDNAKNTVYLQMNSLKPEDTAVFYCGASFLGRKYDYWGHGTQVTVSS | high polyreactivity
31 | QVQLVESGGGLVQAGGSLRLSCAASGLTFVGNAMGWYRQAPGKERELVAAISRSGGRTYYADSVKGRFTISRDNAKNTVYLQMNSLKPEDTAVYYCAAPYRSYDWYDYWGQGTQVTVSS | high polyreactivity
